Patent publication US20230140293A1
pKd: −log10 of the molar value. Read-outs that look alike come from different tables or passages of the source.

Legend:
[1] = molecular target: HIV-1 CH0505TF.G458Y Env on Env-pseudotyped virus produced in 293S GnTI-/- cells (Man5-enrichment) (HIV-1); assay: cell-based or functional assay
[2] = molecular target: HIV-1 CH0505TF Env on Env-pseudotyped virus produced in 293S/GnTI-/- cells (Man5-enrichment) (HIV-1); assay: cell-based or functional assay
[3] = molecular target: CH0505TF.gly3.276 Env, pseudotyped virus produced in 293S GnTI- cells (HIV-1); assay: cell-based or functional assay
[4] = molecular target: CH0505TF.gly3.197 Env, Env-pseudotyped virus produced in 293T cells (HIV-1); assay: cell-based or functional assay
[5] = molecular target: HIV-1 Env 426c.TM4 (S278R.G471S.N460D.N463D), Env-pseudotyped virus produced in 293T cells (HIV-1 clade C strain 426c); assay: cell-based or functional assay
[6] = molecular target: CH0505TF.gly3.197 Env, pseudotyped virus produced in 293S GnTI- cells (HIV-1); assay: cell-based or functional assay
[7] = molecular target: HIV-1 CH0505TF.gly3.197 Env on Env-pseudotyped virus produced in 293S/GnTI-/- cells (Man5-enrichment) (HIV-1); assay: cell-based or functional assay
[8] = molecular target: HIV-1 clade C strain 426c Env on Env-pseudotyped virus produced in 293T cells (HIV-1); assay: cell-based or functional assay
[9] = molecular target: HIV-1 Env 426c, Env-pseudotyped virus produced in 293S GnTI- cells (Man5-enriched) (HIV-1 clade C strain 426c); assay: cell-based or functional assay
[10] = molecular target: HIV-1 Env 426c.DM (N460D.N463D), Env-pseudotyped virus produced in 293S GnTI- cells (Man5-enriched) (HIV-1 clade C strain 426c); assay: cell-based or functional assay
[11] = molecular target: CH0505TF Env, pseudotyped virus produced in 293S GnTI- cells (HIV-1); assay: cell-based or functional assay
[12] = molecular target: CH505 w030.28 gp120 (HIV-1); assay: ELISA, gp120 on plate
[13] = molecular target: CH505 w053.16 gp120 (HIV-1); assay: ELISA, gp120 on plate
[14] = molecular target: CH505 w078.15 gp120 (HIV-1); assay: ELISA, gp120 on plate
[15] = molecular target: CH505 transmitted/founder (TF) gp120 (HIV-1); assay: ELISA, gp120 on plate
[16] = molecular target: CH505 w020.14 gp120 (HIV-1); assay: ELISA, gp120 on plate
[17] = molecular target: CH505 w078.33 gp120 (HIV-1); assay: ELISA, gp120 on plate
[18] = molecular target: CH505 w100.B6 gp120 (HIV-1); assay: ELISA, gp120 on plate
[19] = molecular target: CH505 w030.21 gp120 (HIV-1); assay: ELISA, gp120 on plate
CH505 M5 gp120 (HIV-1) [20] = assay: ELISA, gp120 on plate
[21] = molecular target: CH505 w053.31 gp120 (HIV-1); assay: ELISA, gp120 on plate
CH505 M11 gp120 (HIV-1) = assay: ELISA, gp120 on plate
[22] = molecular target: CH0505TF G458L Env, pseudotyped virus produced in 293S GnTI- cells (HIV-1); assay: cell-based or functional assay
[23] = molecular target: CH0505TF.gly4.G458Y Env, pseudotyped virus produced in 293T cells (HIV-1); assay: cell-based or functional assay
[24] = molecular target: CH0505TF G458C Env, pseudotyped virus produced in 293S GnTI- cells (HIV-1); assay: cell-based or functional assay
[25] = molecular target: HIV-1 CH0505TF.G458Y Env on Env-pseudotyped virus produced in 293S GnTI-/- cells (Man5-enrichment) (HIV-1); assay: cell-based or functional assay; remark: listed apart in the source
[26] = molecular target: HIV-1 CH0505TF.G458Y Env on Env-pseudotyped virus produced in 293T cells (HIV-1); assay: cell-based or functional assay
[27] = molecular target: CH0505TF G458Y.N280D Env, pseudotyped virus produced in 293S GnTI- cells (HIV-1); assay: cell-based or functional assay
[28] = molecular target: CH0505TF G458F Env, pseudotyped virus produced in 293S GnTI- cells (HIV-1); assay: cell-based or functional assay
[29] = molecular target: CH0505TF G458R Env, pseudotyped virus produced in 293S GnTI- cells (HIV-1); assay: cell-based or functional assay
[30] = molecular target: CH0505TF G458W Env, pseudotyped virus produced in 293S GnTI- cells (HIV-1); assay: cell-based or functional assay
[31] = molecular target: CH0505TF G458K Env, pseudotyped virus produced in 293S GnTI- cells (HIV-1); assay: cell-based or functional assay
[32] = molecular target: CH0505TF G458S Env, pseudotyped virus produced in 293S GnTI- cells (HIV-1); assay: cell-based or functional assay
[33] = molecular target: CH0505TF G458D Env, pseudotyped virus produced in 293S GnTI- cells (HIV-1); assay: cell-based or functional assay
[34] = molecular target: CH0505TF G458E Env, pseudotyped virus produced in 293S GnTI- cells (HIV-1); assay: cell-based or functional assay
[35] = molecular target: CH0505TF.gly4.G458Y Env, pseudotyped virus produced in 293S GnTI- cells (HIV-1); assay: cell-based or functional assay
CH505 M5 gp120 (HIV-1) [36] = assay: method not named in the legend (FIG. 59F); GMP M5 gp120

CH103 (antibody)
IC50 (µg/ml) in TZM-bl [1]: 0.44 µg/mL | IC50 (ug/ml) in TZM-bl cells [2]: 0.67 µg/mL | IC50 (µg/ml) in TZM-bl [3]: 0.007 µg/mL | IC50 (µg/ml) in TZM-bl [4]: 1.6 µg/mL | IC50 (µg/ml) in TZM-bl [5]: 3.7 µg/mL | IC50 (µg/ml) in TZM-bl [6]: 0.19 µg/mL | IC50 (ug/ml) in TZM-bl cells [7]: 0.19 µg/mL | ID50/IC50 in TZM-bl [8]: > 40 µg/mL | IC50 (µg/ml) in TZM-bl [9]: 5.3 µg/mL | IC50 (µg/ml) in TZM-bl [10]: 0.63 µg/mL | IC50 (µg/ml) in TZM-bl [11]: 0.57 µg/mL | log AUC [12]: 12.8 log AUC | log AUC [13]: 11.6 log AUC | log AUC [14]: 10.7 log AUC | log AUC [15]: 12.6 log AUC | log AUC [16]: 12.6 log AUC | log AUC [17]: 11.1 log AUC | log AUC [18]: 7.1 log AUC | log AUC [19]: 12.2 log AUC | log AUC (CH505 M5 gp120 (HIV-1) [20]): 9.8 log AUC | log AUC [21]: 13.6 log AUC | log AUC (CH505 M11 gp120 (HIV-1)): 13.4 log AUC

CH235 (antibody)
IC50 (µg/ml) in TZM-bl cells [22]: 0.015 µg/mL | IC50 (µg/ml) in TZM-bl cells [23]: 0.064 µg/mL | IC50 (µg/ml) in TZM-bl cells [24]: 0.009 µg/mL | IC50 (ug/ml) in TZM-bl cells [2]: 0.03 µg/mL | IC50 (µg/ml) in TZM-bl [2]: < 0.02 µg/mL | IC50 (µg/ml) in TZM-bl [25]: < 0.02 µg/mL | IC50 (µg/ml) in TZM-bl [26]: 0.2 µg/mL | IC50 (µg/ml) in TZM-bl [3]: 0.02 µg/mL | IC50 (µg/ml) in TZM-bl cells [27]: 2.69 µg/mL | IC50 (µg/ml) in TZM-bl cells [28]: < 0.005 µg/mL | IC50 (µg/ml) in TZM-bl [4]: 0.16 µg/mL | IC50 (µg/ml) in TZM-bl cells [29]: < 0.005 µg/mL | IC50 (µg/ml) in TZM-bl [5]: > 25 µg/mL | IC50 (µg/ml) in TZM-bl [6]: 0.006 µg/mL | IC50 (µg/ml) in TZM-bl cells [30]: < 0.005 µg/mL | IC50 (µg/ml) in TZM-bl cells [31]: 0.022 µg/mL | IC50 (ug/ml) in TZM-bl cells [7]: 0.006 µg/mL | ID50/IC50 in TZM-bl [8]: > 50 µg/mL | IC50 (µg/ml) in TZM-bl cells [32]: 0.005 µg/mL | IC50 (µg/ml) in TZM-bl cells [33]: 0.011 µg/mL | IC50 (µg/ml) in TZM-bl cells [34]: 0.012 µg/mL | IC50 (µg/ml) in TZM-bl [9]: > 25 µg/mL | IC50 (µg/ml) in TZM-bl [10]: > 25 µg/mL | IC50 (µg/ml) in TZM-bl cells [35]: < 0.005 µg/mL | IC50 (µg/ml) in TZM-bl [11]: 0.03 µg/mL | log AUC [12]: 6.7 log AUC | log AUC [16]: 9.9 log AUC | log AUC (CH505 M5 gp120 (HIV-1) [20]): 11.4 log AUC | log AUC [21]: 1.1 log AUC | log AUC (CH505 M11 gp120 (HIV-1)): 7.6 log AUC | pKd (CH505 M5 gp120 (HIV-1) [36]): 8.10
